Experimental data reported in US20210388087A1 (Chugai, published 2021).

B1: CE115HA000 D101H one-arm antibody (antibody, human IgG1, kappa, L234A L235A, N297A, name in Kabat numbering)
heavy: QVQLVESGGGVVQPGRSLRLSCAASGFTFSNAWMHWVRQAPGKGLEWVAQIKAKSNNYATYYAESVKGRFTISRDDSKNSLYLQMNSLKTEDTAVYYCRYVHYGAYYGVHAWGQGTTVTVSSASTKGPSVFPLAPSSKSTSGGTAALGCLVKDYFPEPVTVSWNSGALTSGVHTFPAVLQSSGLYSLSSVVTVPSSSLGTQTYICNVNHKPSNTKVDKKVEPKSCDKTHTCPPCPAPEAAGGPSVFLFPPKPKDTLMISRTPEVTCVVVDVSHEDPEVKFNWYVDGVEVHNAKTKPREEQYASTYRVVSVLTVLHQDWLNGKEYKCKVSNKALPAPIEKTISKAKGQPREPQVYTLPPSRCELTKNQVSLSCAVKGFYPSDIAVEWESNGQPENNYKTTPPVLDSDGSFFLVSKLTVDKSRWQQGNVFSCSVMHEALHNHYTQKSLSLSPDYKDDDDK
chain: EPKSSDKTHTCPPCPAPELLGGPSVFLFPPKPKDTLMISRTPEVTCVVVDVSHEDPEVKFNWYVDGVEVHNAKTKPREEQYNSTYRVVSVLTVLHQDWLNGKEYKCKVSNKALPAPIEKTISKAKGQPREPQVCTLPPSRDELTKNQVSLWCLVKGFYPSDIAVEWESNGQPENNYKTTPPVLDSDGSFFLYSKLTVDKSRWQQGNVFSCSVMHEALHNRYTQKSLSLSP
light: DIVMTQSPLSLPVTPGEPASISCRSSQSLVHSNRNTYLHWYQQKPGQAPRLLIYKVSNRFSGVPDRFSGSGSGTDFTLKISRVEAEDVGVYYCGQGTQVPYTFGQGTKLEIKRTVAAPSVFIFPPSDEQLKSGTASVVCLLNNFYPREAKVQWKVDNALQSGNSQESVTEQDSKDSTYSLSSTLTLSKADYEKHKVYACEVTHQGLSSPVTKSFNRGEC
B2: CE115HA000 D101I one-arm antibody (antibody, human IgG1, kappa, L234A L235A, N297A, name in Kabat numbering)
heavy: QVQLVESGGGVVQPGRSLRLSCAASGFTFSNAWMHWVRQAPGKGLEWVAQIKAKSNNYATYYAESVKGRFTISRDDSKNSLYLQMNSLKTEDTAVYYCRYVHYGAYYGVIAWGQGTTVTVSSASTKGPSVFPLAPSSKSTSGGTAALGCLVKDYFPEPVTVSWNSGALTSGVHTFPAVLQSSGLYSLSSVVTVPSSSLGTQTYICNVNHKPSNTKVDKKVEPKSCDKTHTCPPCPAPEAAGGPSVFLFPPKPKDTLMISRTPEVTCVVVDVSHEDPEVKFNWYVDGVEVHNAKTKPREEQYASTYRVVSVLTVLHQDWLNGKEYKCKVSNKALPAPIEKTISKAKGQPREPQVYTLPPSRCELTKNQVSLSCAVKGFYPSDIAVEWESNGQPENNYKTTPPVLDSDGSFFLVSKLTVDKSRWQQGNVFSCSVMHEALHNHYTQKSLSLSPDYKDDDDK
chain: EPKSSDKTHTCPPCPAPELLGGPSVFLFPPKPKDTLMISRTPEVTCVVVDVSHEDPEVKFNWYVDGVEVHNAKTKPREEQYNSTYRVVSVLTVLHQDWLNGKEYKCKVSNKALPAPIEKTISKAKGQPREPQVCTLPPSRDELTKNQVSLWCLVKGFYPSDIAVEWESNGQPENNYKTTPPVLDSDGSFFLYSKLTVDKSRWQQGNVFSCSVMHEALHNRYTQKSLSLSP
light: DIVMTQSPLSLPVTPGEPASISCRSSQSLVHSNRNTYLHWYQQKPGQAPRLLIYKVSNRFSGVPDRFSGSGSGTDFTLKISRVEAEDVGVYYCGQGTQVPYTFGQGTKLEIKRTVAAPSVFIFPPSDEQLKSGTASVVCLLNNFYPREAKVQWKVDNALQSGNSQESVTEQDSKDSTYSLSSTLTLSKADYEKHKVYACEVTHQGLSSPVTKSFNRGEC
B3: CE115HA000 D101K one-arm antibody (antibody, human IgG1, kappa, L234A L235A, N297A, name in Kabat numbering)
heavy: QVQLVESGGGVVQPGRSLRLSCAASGFTFSNAWMHWVRQAPGKGLEWVAQIKAKSNNYATYYAESVKGRFTISRDDSKNSLYLQMNSLKTEDTAVYYCRYVHYGAYYGVKAWGQGTTVTVSSASTKGPSVFPLAPSSKSTSGGTAALGCLVKDYFPEPVTVSWNSGALTSGVHTFPAVLQSSGLYSLSSVVTVPSSSLGTQTYICNVNHKPSNTKVDKKVEPKSCDKTHTCPPCPAPEAAGGPSVFLFPPKPKDTLMISRTPEVTCVVVDVSHEDPEVKFNWYVDGVEVHNAKTKPREEQYASTYRVVSVLTVLHQDWLNGKEYKCKVSNKALPAPIEKTISKAKGQPREPQVYTLPPSRCELTKNQVSLSCAVKGFYPSDIAVEWESNGQPENNYKTTPPVLDSDGSFFLVSKLTVDKSRWQQGNVFSCSVMHEALHNHYTQKSLSLSPDYKDDDDK
chain: EPKSSDKTHTCPPCPAPELLGGPSVFLFPPKPKDTLMISRTPEVTCVVVDVSHEDPEVKFNWYVDGVEVHNAKTKPREEQYNSTYRVVSVLTVLHQDWLNGKEYKCKVSNKALPAPIEKTISKAKGQPREPQVCTLPPSRDELTKNQVSLWCLVKGFYPSDIAVEWESNGQPENNYKTTPPVLDSDGSFFLYSKLTVDKSRWQQGNVFSCSVMHEALHNRYTQKSLSLSP
light: DIVMTQSPLSLPVTPGEPASISCRSSQSLVHSNRNTYLHWYQQKPGQAPRLLIYKVSNRFSGVPDRFSGSGSGTDFTLKISRVEAEDVGVYYCGQGTQVPYTFGQGTKLEIKRTVAAPSVFIFPPSDEQLKSGTASVVCLLNNFYPREAKVQWKVDNALQSGNSQESVTEQDSKDSTYSLSSTLTLSKADYEKHKVYACEVTHQGLSSPVTKSFNRGEC
B4: CE115HA000 D101L one-arm antibody (antibody, human IgG1, kappa, L234A L235A, N297A, name in Kabat numbering)
heavy: QVQLVESGGGVVQPGRSLRLSCAASGFTFSNAWMHWVRQAPGKGLEWVAQIKAKSNNYATYYAESVKGRFTISRDDSKNSLYLQMNSLKTEDTAVYYCRYVHYGAYYGVLAWGQGTTVTVSSASTKGPSVFPLAPSSKSTSGGTAALGCLVKDYFPEPVTVSWNSGALTSGVHTFPAVLQSSGLYSLSSVVTVPSSSLGTQTYICNVNHKPSNTKVDKKVEPKSCDKTHTCPPCPAPEAAGGPSVFLFPPKPKDTLMISRTPEVTCVVVDVSHEDPEVKFNWYVDGVEVHNAKTKPREEQYASTYRVVSVLTVLHQDWLNGKEYKCKVSNKALPAPIEKTISKAKGQPREPQVYTLPPSRCELTKNQVSLSCAVKGFYPSDIAVEWESNGQPENNYKTTPPVLDSDGSFFLVSKLTVDKSRWQQGNVFSCSVMHEALHNHYTQKSLSLSPDYKDDDDK
chain: EPKSSDKTHTCPPCPAPELLGGPSVFLFPPKPKDTLMISRTPEVTCVVVDVSHEDPEVKFNWYVDGVEVHNAKTKPREEQYNSTYRVVSVLTVLHQDWLNGKEYKCKVSNKALPAPIEKTISKAKGQPREPQVCTLPPSRDELTKNQVSLWCLVKGFYPSDIAVEWESNGQPENNYKTTPPVLDSDGSFFLYSKLTVDKSRWQQGNVFSCSVMHEALHNRYTQKSLSLSP
light: DIVMTQSPLSLPVTPGEPASISCRSSQSLVHSNRNTYLHWYQQKPGQAPRLLIYKVSNRFSGVPDRFSGSGSGTDFTLKISRVEAEDVGVYYCGQGTQVPYTFGQGTKLEIKRTVAAPSVFIFPPSDEQLKSGTASVVCLLNNFYPREAKVQWKVDNALQSGNSQESVTEQDSKDSTYSLSSTLTLSKADYEKHKVYACEVTHQGLSSPVTKSFNRGEC
B5: CE115HA000 D101M one-arm antibody (antibody, human IgG1, kappa, L234A L235A, N297A, name in Kabat numbering)
heavy: QVQLVESGGGVVQPGRSLRLSCAASGFTFSNAWMHWVRQAPGKGLEWVAQIKAKSNNYATYYAESVKGRFTISRDDSKNSLYLQMNSLKTEDTAVYYCRYVHYGAYYGVMAWGQGTTVTVSSASTKGPSVFPLAPSSKSTSGGTAALGCLVKDYFPEPVTVSWNSGALTSGVHTFPAVLQSSGLYSLSSVVTVPSSSLGTQTYICNVNHKPSNTKVDKKVEPKSCDKTHTCPPCPAPEAAGGPSVFLFPPKPKDTLMISRTPEVTCVVVDVSHEDPEVKFNWYVDGVEVHNAKTKPREEQYASTYRVVSVLTVLHQDWLNGKEYKCKVSNKALPAPIEKTISKAKGQPREPQVYTLPPSRCELTKNQVSLSCAVKGFYPSDIAVEWESNGQPENNYKTTPPVLDSDGSFFLVSKLTVDKSRWQQGNVFSCSVMHEALHNHYTQKSLSLSPDYKDDDDK
chain: EPKSSDKTHTCPPCPAPELLGGPSVFLFPPKPKDTLMISRTPEVTCVVVDVSHEDPEVKFNWYVDGVEVHNAKTKPREEQYNSTYRVVSVLTVLHQDWLNGKEYKCKVSNKALPAPIEKTISKAKGQPREPQVCTLPPSRDELTKNQVSLWCLVKGFYPSDIAVEWESNGQPENNYKTTPPVLDSDGSFFLYSKLTVDKSRWQQGNVFSCSVMHEALHNRYTQKSLSLSP
light: DIVMTQSPLSLPVTPGEPASISCRSSQSLVHSNRNTYLHWYQQKPGQAPRLLIYKVSNRFSGVPDRFSGSGSGTDFTLKISRVEAEDVGVYYCGQGTQVPYTFGQGTKLEIKRTVAAPSVFIFPPSDEQLKSGTASVVCLLNNFYPREAKVQWKVDNALQSGNSQESVTEQDSKDSTYSLSSTLTLSKADYEKHKVYACEVTHQGLSSPVTKSFNRGEC
B6: CE115HA000 D101N one-arm antibody (antibody, human IgG1, kappa, L234A L235A, N297A, name in Kabat numbering)
heavy: QVQLVESGGGVVQPGRSLRLSCAASGFTFSNAWMHWVRQAPGKGLEWVAQIKAKSNNYATYYAESVKGRFTISRDDSKNSLYLQMNSLKTEDTAVYYCRYVHYGAYYGVNAWGQGTTVTVSSASTKGPSVFPLAPSSKSTSGGTAALGCLVKDYFPEPVTVSWNSGALTSGVHTFPAVLQSSGLYSLSSVVTVPSSSLGTQTYICNVNHKPSNTKVDKKVEPKSCDKTHTCPPCPAPEAAGGPSVFLFPPKPKDTLMISRTPEVTCVVVDVSHEDPEVKFNWYVDGVEVHNAKTKPREEQYASTYRVVSVLTVLHQDWLNGKEYKCKVSNKALPAPIEKTISKAKGQPREPQVYTLPPSRCELTKNQVSLSCAVKGFYPSDIAVEWESNGQPENNYKTTPPVLDSDGSFFLVSKLTVDKSRWQQGNVFSCSVMHEALHNHYTQKSLSLSPDYKDDDDK
chain: EPKSSDKTHTCPPCPAPELLGGPSVFLFPPKPKDTLMISRTPEVTCVVVDVSHEDPEVKFNWYVDGVEVHNAKTKPREEQYNSTYRVVSVLTVLHQDWLNGKEYKCKVSNKALPAPIEKTISKAKGQPREPQVCTLPPSRDELTKNQVSLWCLVKGFYPSDIAVEWESNGQPENNYKTTPPVLDSDGSFFLYSKLTVDKSRWQQGNVFSCSVMHEALHNRYTQKSLSLSP
light: DIVMTQSPLSLPVTPGEPASISCRSSQSLVHSNRNTYLHWYQQKPGQAPRLLIYKVSNRFSGVPDRFSGSGSGTDFTLKISRVEAEDVGVYYCGQGTQVPYTFGQGTKLEIKRTVAAPSVFIFPPSDEQLKSGTASVVCLLNNFYPREAKVQWKVDNALQSGNSQESVTEQDSKDSTYSLSSTLTLSKADYEKHKVYACEVTHQGLSSPVTKSFNRGEC

The binders below were run against T1, CD3 epsilon homodimer protein (UniProt P07766 23-126) (assay: SPR (Biacore T200), CD3 epsilon homodimer on CM4 chip, one-arm antibody as analyte, 25 C;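 also: homodimer attached to the sensor surface via amine coupling, HBS-EP+ used as running buffer during binding runs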).
T1 construct: immobilized on Sensor chip CM4 by amine coupling; also called CD3 (CD3 epsilon)
T1 sequence (P07766 23-126): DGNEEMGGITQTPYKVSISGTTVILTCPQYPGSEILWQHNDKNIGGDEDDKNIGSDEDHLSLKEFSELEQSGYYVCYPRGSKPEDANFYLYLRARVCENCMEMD
With B1 the “ratio of amounts bound (altered form / CE115HA000)” value was 1.21. With B2 the “ratio of amounts bound (altered form / CE115HA000)” value was 1.18. In the case of B3, the “ratio of amounts bound (altered form / CE115HA000)” value is reported as 0.63. With B4 the “ratio of amounts bound (altered form / CE115HA000)” value was 0.62. For B5, the “ratio of amounts bound (altered form / CE115HA000)” value was 1.2. With B6 the “ratio of amounts bound (altered form / CE115HA000)” value was 2.02.
